This note sets out measurements from US20240139251A1 (CYTOARM, published 2024).

Assay [1] has as its target T1, prostate specific membrane antigen (PSMA) on LNCaP cells (human, UniProt Q04609 1-750). Nature of the assay: cell-based or functional assay.
In assay [2] the target is T1, prostate specific membrane antigen …. Nature of the assay: cell-based or functional assay. The source holds these as a separate data set.

B1: anti-CD3 Fab/anti-PSMA scFv BsAb (bispecific antibody, not shown: small tags and cut ends)
light: not shown
heavy (part 1 of 2): not shown
heavy (part 2 of 2): GGGSGGGEVQLVQSGAEVKKPGASVKISCKTSGYTFTEYTIHWVKQASGKGLEWIGNINPNNGGTTYNQKFEDRATLTVDKSTSTAYMELSSLRSEDTAVYYCAAGWNFDYWGQGTTVTVSSAGGGGSGGGGSGGGGSDIVMTQSPSSLSASVGDRVTITCKASQDVGTAVDWYQQKPGKAPKLLIYWASTRHTGVPDRFTGSGSGTDFTLTISSLQPEDFADYFCQQYNSYPLTFGGGTKLEIKRHHHHHH
As to B1, in assay [1], the “Cell killing of LNCaP cells by T cells of Example 2 further modified with BsAb, E/T ratio 10:1” value was more than 90%; the “Cytotoxicity on LNCaP cells of T cells differentiated by BsAb, E/T ratio 5:1” value is approximately 51.3%; the “Cytotoxicity on LNCaP cells of T cells differentiated by BsAb, E/T ratio 10:1” value is approximately 61%; the “Cytotoxicity on LNCaP cells of T cells differentiated by and further modified with BsAb, E/T ratio 5:1” value is approximately 78.2%. The “Cytotoxicity on LNCaP cells of T cells differentiated by and further modified with BsAb, E/T ratio 10:1” value in assay [1] is approximately 81.8%. Besides, in assay [2], the “Cytotoxic effect of BsAb T cells on LNCaP cells, Effect cell/Target cell 3:1” value (shortened to “Cytotoxic effect … Effect cell/Target cell 3:1”) is 30.3%; the “Cytotoxic effect of BsAb T cells on LNCaP cells, Effect cell/Target cell 5:1” value (“Cytotoxic effect … Effect cell/Target cell 5:1” for short) worked out at 62.6%; the “Cytotoxic effect of BsAb T cells on LNCaP cells, Effect cell/Target cell 10:1” value (“Cytotoxic effect … Effect cell/Target cell 10:1” below) came out at 82.2%.

B2: anti-PSMA Fab/anti-CD3 scFv BsAb (bispecific antibody, not shown: small tags and cut ends)
light: DIVMTQSPSSLSASVGDRVTITCKASQDVGTAVDWYQQKPGKAPKLLIYWASTRHTGVPDRFTGSGSGTDFTLTISSLQPEDFADYFCQQYNSYPLTFGGGTKLEIKRTVAAPSVFIFPPSDEQLKSGTASVVCLLNNFYPREAKVQWKVDNALQSGNSQESVTEQDSKDSTYSLSSTLTLSKADYEKHKLYACEVTHQGLSSPVTKSFNRGEC
heavy (part 1 of 2): EVQLVQSGAEVKKPGASVKISCKTSGYTFTEYTIHWVKQASGKGLEWIGNINPNNGGTTYNQKFEDRATLTVDKSTSTAYMELSSLRSEDTAVYYCAAGWNFDYWGQGTTVTVSSASTKGPSVFPLAPSSKSTSGGTAALGCLVKDYFPEPVTVSWNSGALTSGVHTFPAVLQSSGLYSLSSVVTVPSSSLGTQTYICNVNHKPSNTKVDKRVEPKSCDK
heavy (part 2 of 2): not shown
With B2, in assay [1], the “Cell killing of LNCaP cells by T cells of Example 2 further modified with BsAb, E/T ratio 10:1” value was more than 90% and the “Cell killing of LNCaP cells by murine OKT3 T cells modified with BsAb, E/T ratio 10:1” value was approximately 100%. In assay [2], the “Cytotoxic effect … Effect cell/Target cell 3:1” value came to 64.8%; the “Cytotoxic effect … Effect cell/Target cell 5:1” value came out at 87%; the “Cytotoxic effect … Effect cell/Target cell 10:1” value came to 97.3%.

B3: anti-PSMA scFv/anti-CD3 scFv BsAb (bispecific antibody, not shown: small tags and cut ends)
chain (part 1 of 2): DIVMTQSPSSLSASVGDRVTITCKASQDVGTAVDWYQQKPGKAPKLLIYWASTRHTGVPDRFTGSGSGTDFTLTISSLQPEDFADYFCQQYNSYPLTFGGGTKLEIKRGGGGSGGGGSGGGGSEVQLVQSGAEVKKPGASVKISCKTSGYTFTEYTIHWVKQASGKGLEWIGNINPNNGGTTYNQKFEDRATLTVDKSTSTAYMELSSLRSEDTAVYYCAAGWNFDYWGQGTTVTVSSA
chain (part 2 of 2): not shown
In the case of B3, the “Cell killing of LNCaP cells by T cells of Example 2 further modified with BsAb, E/T ratio 10:1” value in assay [1] was more than 90%. In addition, in assay [2], the “Cytotoxic effect … Effect cell/Target cell 3:1” value was found to be 53.8%; the “Cytotoxic effect … Effect cell/Target cell 5:1” value stood at 83.4%; the “Cytotoxic effect … Effect cell/Target cell 10:1” value worked out at 97.6%.

B4: anti-CD3 knob/anti-PSMA hole BsAb (bispecific antibody)
light 1: not shown
heavy 1: not shown
light 2: RIVMTQSPSSLSASVGDRVTITCKASQDVGTAVDWYQDKPGKAPKLLIYWASTRHTGVPDRFTGSGSGTDFTLTISSLQPEDFADYFCQQYNSYPLTFGGGTKLEIKRTVAAPSVFIFPPSDEQLKSGTASVVCYLNNFYPREAKVQWKVDNALQSGNSQESVTEQDSKDSTYSLWSTLTLSKADYEKHKLYACEVTHQGLSSPVTKSFNRGECGGGSYPYDVPDYA
heavy 2: not shown
Turning to B4, the “Cell killing of LNCaP cells by T cells of Example 2 further modified with BsAb, E/T ratio 10:1” value in assay [1] was more than 90%. In assay [2], the “Cytotoxic effect … Effect cell/Target cell 3:1” value was 43.1%; the “Cytotoxic effect … Effect cell/Target cell 5:1” value was 58.6%; the “Cytotoxic effect … Effect cell/Target cell 10:1” value is 70.4%.
